{"source": "patent US9315837B2", "about": "“Desaturases of a green microalga and uses thereof” (Ben Gurion University of the Negev Research and Development …, priority 2010, dated 2016)", "tested_on": "supplied fatty acids in S. cerevisiae strain W303", "assay": "Functional expression of PiELO1 in S. cerevisiae fed with fatty acids, GC of FAMEs", "type": "cell-based, Saccharomyces cerevisiae", "source_text": "The ORF encoding for PiELO1 was amplified using PfuUltra II fusion HS DNA polymerase (Stratagene, La Jolla, Calif.) with the forward primer, 5′-[…] (PUFAEL5RES1) (SEQ ID NO: 33), containing a restriction site (underlined) and a yeast translation consensus followed by ATG (double underlined) and the reverse primer 5′-[…] (PUFAEL3RES2) (SEQ ID NO: 34) containing a restriction site (underlined) and a stop codon (double underlined). The amplified sequence was then restricted with EcoRI and XbaI (NEB, Ipswich, Mass.). The expected bands were gel-purified with NucleoSpin Extract II purification kit (Machery-Nagel GmbH, Duren, Germany) and ligated into a EcoRI-Xba1 cut pYES2 vector, yielding YpPiELO1. Saccharomyces cerevisiae strain W303 was transformed with YpPiELO1 by the PEG/lithium acetate method. The yeast cells harboring the empty pYES2 vector were used as control. Transformants were selected by uracil prototrophy on yeast synthetic medium (YSM) lacking uracil (Invitrogen, Carlsbad, Calif.). For functional expression, a minimal selection medium containing 2% (w/v) raffinose was inoculated with the YpPiELO1-transformants and grown at 27° C. for 24 h in a water bath shaker. Five ml of sterile YSM, containing 1% (w/v) Tergitol-40 and 250 µM of the appropriate fatty acid was inoculated with raffinose-grown cultures to obtain an OD of 0.2 at 600 nm. Expression was induced by adding galactose to a final concentration of 2% (w/v) and cultures were further grown at 27° C. for 48 h. Cells were harvested by centrifugation, washed twice with 0.1% NaHCO3, freeze-dried and used for fatty acid analysis.\nFatty acid methyl esters (FAMES) were obtained by transmethylation of the freeze-dried P. incisa or yeast biomass, with dry methanol containing 2% H2SO4 (v/v) and heating at 80° C. for 1.5 h while stirring under an argon atmosphere. Gas chromatographic analysis of FAMES was performed on a Thermo Ultra Gas chromatograph (Thermo Scientific, Italy) equipped with PTV injector, FID detector and a fused silica capillary column (30 m×0.32 mm; ZB WAXplus, Phenomenex). FAMES were identified by co-chromatography with authentic standards (Sigma Chemical Co., St. Louis, Mo.; Larodan Fine Chemicals, Malmo, Sweden) and FAME of fish oil (Larodan Fine Chemicals). Each sample was analyzed in duplicates of three independent experiments. The structures of fatty acids were confirmed by GC-MS of their pyrrolidine derivatives [W. W. Christie, The analysis of fatty acids in: W. W. Christie (Ed.), Lipid analysis Isolation, separation, identification and structural analysis of lipids, vol. […]", "data": [{"molecule": "PiELO1: P. incisa Δ6 PUFA elongase, 289 amino acid residues, SEQ ID NO: 7 (protein, listed as Parietochloris incisa) MALTAAWHKYDAIVSRFVFDGLRRVGLQEIQGHPSVITAHLPFIASPTPQVTFVLAYLLIVVCGVAALRTRKSSAPREDPAWLRLLVQAHNLVLISLSAYMSSAACYYAWKYGYRFWGTNYSPKERDMGGLIYTFYVSKLYEFVDTLIMLLKGKVEQVSFLHVYHHASISTIWWAIAYVAPGGDAWYCCFLNSLVHVLMYTYYLLATLLGKDAKARRKYLWWGRYLTQFQMFQFVTMMLEAAYTWAYSPYPKFLSKLLFFYMITLLALFANFYAQKHGSSRAAKQKLQ", "values": [{"measurement": "elongation of supplied fatty acid", "setting": "substrate 18:3ω6 (GLA), product DGLA, 20:3ω6", "value": "elongated"}, {"measurement": "elongation of supplied fatty acid", "setting": "substrate 18:4ω3 (STA), product 20:4ω3", "value": "elongated"}, {"measurement": "elongation of supplied fatty acid", "setting": "substrate ARA", "value": "did not result in their elongation"}, {"measurement": "elongation of supplied fatty acid", "setting": "substrate LA", "value": "did not result in their elongation"}]}]}
